Laboratory results as given in patent US20080187543A1.

Molecular target: Recombinant myostatin
Experiment: cell-based or functional assay

macrophage migration towards ZAMS medium (Boyden-type chemotaxis chamber), 5 µg/ml myostatin with 350 protein at 10 and 25 µg/ml: 20 fold
Substance: 350 protein (amino acids 267-350 of bovine myostatin) (from UniProt O18836 267-350)
